How the values were obtained:
Format in all cases: in vivo, human
[1] = system: subjects with locally advanced and/or metastatic cancer of various types; test: Phase I/II dose-escalation study: safety and tolerability, adverse events (CTCAE v4.03) occurring up to 30 days after treatment
Protocol: (§1) A first-in-human phase I/II dose-escalating study following a 3+3 dose-escalation design was conducted in order to test the safety of tisotumab vedotin in 27 subjects with locally advanced and/or metastatic cancer of various types including cervical cancer (FIG. 2). Tisotumab vedotin was administered by intravenous infusion at doses ranging from 0.3 mg/kg to 2.2 mg/kg on day 1 of a 21-day cycle for four cycles (i.e., each treatment cycle was 3 weeks). Patients with stable disease (SD) or better at the end of four cycles had the option to continue treatment with tisotumab vedotin for eight additional cycles (FIG. 2). Tumor evaluations were performed by CT scans every six weeks. In order to qualify for SD, results of the CT scan scheduled for week six needed to be SD or better. Two CT scans were performed outside the per-protocol defined window.
(§2) Lyophilized vials containing 40 mg of tisotumab vedotin were stored in a refrigerator at 2° C. to 8° C. Tisotumab vedotin was reconstituted in 4 ml of water leading to a reconstituted solution comprising 10 mg/mL tisotumab vedotin, 30 mM histidine, 88 mM sucrose, and 165 mM D-mannitol. […] The reconstituted tisotumab vedotin was diluted into a 0.9% NaCl 100 mL infusion bag according to the dose calculated for the patient. Intravenous infusion was completed within 24 hours after the tisotumab vedotin vial had been reconstituted. A 0.2 μm in-line filter was used for the intravenous infusion. The entire 100 mL volume from the prepared infusion bag was administered. No dead volume was provided.
(§3) A primary objective of the study was to assess the safety and tolerability in a mixed population of patients with specified solid tumors. Adverse event (AE) severity was graded according to Common Terminology Criteria for Adverse Events (CTCAE) version 4.03. Secondary objectives of the study included determining the pharmacokinetic (PK) profile of tisotumab vedotin and preliminary evaluation of anti-tumor activity as assessed according to Response Evaluation Criteria in Solid Tumors [RECIST] version 1.1. Dose-limiting toxicities (DLTs) were determined during the first cycle and were defined as grade≥3 events possibly related to tisotumab vedotin. […] Tumor biopsies were required at baseline for TF expression which was assessed by immunohistochemistry utilizing tisotumab. TF staining intensity was determined using the H-scoring system.
Inclusion criteria for eligible subjects included: patients with relapsed, advanced, and/or metastatic cancer who have failed available standard therapy; and measurable disease.
Exclusion criteria included known past or current coagulation defects; ongoing major bleeding; and presence of CTCAE grade≥2 peripheral neuropathy.

[2] = system: patients with relapsed, recurrent and/or metastatic cervical cancer; test: Phase IIa single arm trial: safety and tolerability (CTCAE v4.03); conditions: 2.0 mg/kg q3w
Protocol: A Phase IIa single arm, multicenter trial investigated the efficacy, safety and tolerability of 2.0 mg/kg tisotumab vedotin in patients with relapsed, recurrent and/or metastatic cervical cancer. A total of 34 patients (n=34) were enrolled and received at least 1 dose of tisotumab vedotin. Each eligible patient was assigned to receive an intravenous (IV) infusion dose of tisotumab vedotin at a concentration of 2.0 mg/kg on day 1 of a 21-day cycle (i.e., each treatment cycle was 3 weeks (q3w)).
as §2, with “patient to receive 2.0 mg/kg tisotumab vedotin.” for “patient.”
A primary objective of the study was to assess safety and tolerability of tisotumab vedotin. Adverse event (AE) severity was graded according to CTCAE version 4.03. A secondary objective was preliminary evaluation of anti-tumor activity durability as assessed according to RECIST version 1.1. Tumor evaluations were performed by CT scans every six weeks.

[3] = system: locally advanced and/or metastatic cancer of various types including cervical cancer; test: Phase I/II dose-escalation study: anti-tumor activity per RECIST v1.1 (CT scans every six weeks)
Protocol: as §1, §3

[4] = Patient 2, cervical cancer, 1.2 mg/kg

tisotumab vedotin
AE leading to discontinuation ([1]; 0.3 mg/kg (n = 3)): 0 n | AE leading to discontinuation ([1]; 0.6 mg/kg (n = 3)): 0 n | AE leading to discontinuation ([1]; 0.9 mg/kg (n = 3)): 0 n | AE with outcome of death ([1]; 0.9 mg/kg (n = 3)): 0 n | Serious AE ([1]; 0.9 mg/kg (n = 3)): 0 n | AE leading to discontinuation ([1]; 1.2 mg/kg (n = 3)): 0 n | AE with outcome of death ([1]; 1.2 mg/kg (n = 3)): 0 n | AE leading to discontinuation ([1]; 1.5 mg/kg (n = 3)): 0 n | AE with outcome of death ([1]; 1.5 mg/kg (n = 3)): 0 n | AE with outcome of death ([1]; 1.8 mg/kg (n = 3)): 0 n | AE leading to discontinuation ([1]; 2.0 mg/kg (n = 3)): 0 n | AE with outcome of death ([1]; 2.0 mg/kg (n = 3)): 0 n | AE with outcome of death ([1]; 2.2 mg/kg (n = 6)): 0 n | DLTs (diabetes mellitus type 2, mucositis, neutropenic fever, all grade 3) ([1]; 2.2 mg/kg dose cohort, in three patients, first cycle): Three | Maximum tolerated dose (MTD) ([1]; IV, day 1 of 21-day cycle): 2.0 mg/kg | tolerability [1, 4]: well tolerated and no severe AEs were reported | discontinued due to AE: grade 1 pneumonitis ([1]; all 27 patients): 1 n | discontinued due to AE: grade 2 peripheral swelling and grade 3 pain in extremity ([1]; all 27 patients): one | discontinued due to AE: grade 3 Guillain-Barre syndrome ([1]; all 27 patients): 1 n | discontinued due to AE: grade 3 abdominal pain ([1]; all 27 patients): 2 n | discontinued due to AE: grade 3 diabetes mellitus ([1]; all 27 patients): 1 n | discontinued due to AE: grade 3 fatigue ([1]; all 27 patients): 1 n | grade 4 events ([1]; all 27 patients): no grade 4 events | grade≥3 treatment-related AE: abdominal pain ([1]; all 27 patients): 3 n | grade≥3 treatment-related AE: anemia ([1]; all 27 patients): 4 n | grade≥3 treatment-related AE: fatigue ([1]; all 27 patients): 4 n | grade≥3 treatment-related AE: hyponatraemia ([1]; all 27 patients): 3 n | patients experienced grade≥3 treatment-related AEs ([1]; all 27 patients): 19 patients | treatment-related AE: anaemia ([1]; all 27 patients): 41% | treatment-related AE: epitaxis ([1]; all 27 patients): 48% | treatment-related AE: fatigue ([1]; all 27 patients): 48% | changes in coagulation parameters ([1]; all doses): No significant changes | patients withdrew from treatment due to AEs ([1]; all doses, 27 patients): 15% | patients withdrew from treatment due to death ([1]; all doses, 27 patients): 4% | patients withdrew from treatment due to dose-limiting toxicities (DLTs) ([1]; all doses, 27 patients): 4% | mean prothrombin time ([1]; by the end of the study (n=17), baseline 11.5 seconds (n=18)): 11.7 s | mean activated partial thromboplastin time ([1]; by the end of the study (n=23), baseline 28.2 seconds (n=25)): 27.1 s | grade 4 or grade 5 events ([2]; 34 patients): no grade 4 or grade 5 events | patients withdrew from treatment due to AE ([2]; 34 patients): 5 n | patients experienced conjunctivitis at grade≥3 ([2]; after mitigation (n=19)): 5% | patients experienced conjunctivitis of any grade ([2]; after mitigation (n=19)): 32% | patients experienced conjunctivitis of any grade ([2]; prior to mitigation (n=15)): 73% | safety profile, overall conclusion ([2]; cervical cancer cohort): manageable safety profile | Confirmed Response per RECIST v1.1: Complete response (CR) ([3]; 0.3 mg/kg (n = 3)): 0 n | Confirmed Response per RECIST v1.1: Not evaluable ([3]; 0.3 mg/kg (n = 3)): 0 n | Confirmed Response per RECIST v1.1: Partial response (PR) ([3]; 0.3 mg/kg (n = 3)): 0 n | Confirmed Response per RECIST v1.1: Complete response (CR) ([3]; 0.6 mg/kg (n = 3)): 0 n | Confirmed Response per RECIST v1.1: Partial response (PR) ([3]; 0.6 mg/kg (n = 3)): 0 n | Confirmed Response per RECIST v1.1: Complete response (CR) ([3]; 0.9 mg/kg (n = 3)): 0 n | Confirmed Response per RECIST v1.1: Not evaluable ([3]; 0.9 mg/kg (n = 3)): 0 n | Confirmed Response per RECIST v1.1: Partial response (PR) ([3]; 0.9 mg/kg (n = 3)): 0 n | Confirmed Response per RECIST v1.1: Complete response (CR) ([3]; 1.2 mg/kg (n = 3)): 0 n | Confirmed Response per RECIST v1.1: Not evaluable ([3]; 1.2 mg/kg (n = 3)): 0 n | Confirmed Response per RECIST v1.1: Complete response (CR) ([3]; 1.5 mg/kg (n = 3)): 0 n | Confirmed Response per RECIST v1.1: Not evaluable ([3]; 1.5 mg/kg (n = 3)): 0 n | Confirmed Response per RECIST v1.1: Partial response (PR) ([3]; 1.5 mg/kg (n = 3)): 0 n | Confirmed Response per RECIST v1.1: Complete response (CR) ([3]; 1.8 mg/kg (n = 3)): 0 n | Confirmed Response per RECIST v1.1: Not evaluable ([3]; 1.8 mg/kg (n = 3)): 0 n | Confirmed Response per RECIST v1.1: Partial response (PR) ([3]; 1.8 mg/kg (n = 3)): 0 n | Confirmed Response per RECIST v1.1: Progressive disease (PD) ([3]; 1.8 mg/kg (n = 3)): 0 n | Confirmed Response per RECIST v1.1: Complete response (CR) ([3]; 2.0 mg/kg (n = 3)): 0 n | Confirmed Response per RECIST v1.1: Not evaluable ([3]; 2.0 mg/kg (n = 3)): 0 n | Confirmed Response per RECIST v1.1: Partial response (PR) ([3]; 2.0 mg/kg (n = 3)): 0 n | Confirmed Response per RECIST v1.1: Complete response (CR) ([3]; 2.2 mg/kg (n = 6)): 0 n | Confirmed Response per RECIST v1.1: Not evaluable ([3]; 2.2 mg/kg (n = 6)): 0 n | Confirmed Response per RECIST v1.1: Partial response (PR) ([3]; 2.2 mg/kg (n = 6)): 0 n | reduction in tumor size relative to baseline ([3]; Patient 1, cervical cancer, 2.2 mg/kg): about 20% | best response [3, 4]: confirmed PR | continued benefit, total duration [3, 4]: 15 months | reduction in tumor size relative to baseline (target lesion) ([3]; Patient 2, stage 4 cervical cancer, 3 prior lines, 1.2 mg/kg): about 51% | Confirmed Response per RECIST v1.1: Complete response (CR) ([3]; all doses (n = 27)): 0 n | disease control rate (DCR; PR+SD) ([3]; all doses, 26 patients evaluated): 46% | patients withdrew from treatment due to disease progression ([3]; all doses, 27 patients): 67% | disease control rate (DCR; PR+SD), patients ([3]; all doses, out of 26 patients): 12 patients
